Reference: patent US20120021972A1 (CADILA HEALTHCARE, published 2012)
Starred links: 1 amine or outer side, 2 acyl side, 3 side chain; linkers in the order of their positions; H or OH if unused. Non-standard residues stand in square brackets, D forms with d. No end group written: not given here. *: point of attachment. NMe2F‑APPA = N-methyl-2-amino-5-(2-fluorophenyl)pentanoic acid, CN([C@@H](CCCc1ccccc1F)C(=O)[*:2])[*:1]; 2,4‑diF‑APPA = 2-amino-5-(2,4-difluorophenyl)pentanoic acid, O=C([C@H](CCCc1ccc(F)cc1F)N[*:1])[*:2]; AMCB = 2-amino-5-(4-chloro-2-methylphenyl)pentanoic acid, Cc1cc(Cl)ccc1CCC[C@H](N[*:1])C(=O)[*:2]; ACPP = 2-amino-5-(3-chlorophenyl)pentanoic acid, O=C([C@H](CCCc1cccc(Cl)c1)N[*:1])[*:2]; 2F,4CF3‑APPA = 2-amino-5-(2-fluoro-4-(trifluoromethyl)phenyl)pentanoic acid; Bip(2'-Et-4'-OMe) = CCc1cc(OC)ccc1-c1ccc(C[C@H](N)C(=O)O)cc1; Leu(5,5,5,5',5',5'-F6) = N[C@@H](CC(C(F)(F)F)C(F)(F)F)C(=O)O; Nva(5-(3,5-Me2Ph)) = Cc1cc(C)cc(CCC[C@H](N)C(=O)O)c1; 2F‑APPA = 2-amino-5-(2-fluorophenyl)pentanoic acid; αMePhe(2-F) = C[C@](N)(Cc1ccccc1F)C(=O)O; NMeBip(OMe) = N-methylated Bip(OMe); hhPhe = N[C@@H](CCCc1ccccc1)C(=O)O; 2,4‑diCl‑APPA = not defined here; NMeD = CN[C@@H](CC(=O)O)C(=O)O; aThr = C[C@H](O)[C@H](N)C(=O)O; αMeP = C[C@@]1(C(=O)O)CCCN1; NMeAPPA = not defined here; Ac5c = NC1(C(=O)O)CCCC1; CNB = not defined here; Aib = CC(C)(N)C(=O)O; Moc = COC(=O)*

B1: Seq. ID. No. 189: H-Aib-QG-T(allo)-(α-Me-2F-Phe)-T(allo)-SD-Bip(OMe)-(CH2)-(APPA) (peptide)
peptide: H[Aib]QG[aThr][αMePhe(2-F)][aThr]SD[Bip(2'-Et-4'-OMe)][hhPhe]
modifications: also: reduced (CH2) bond between 10 and 11
B2: Seq. ID. No. 197: CH3CO-H-Aib-QG-T(allo)-(α-Me-2F-Phe)-T(allo)-SD-(CH2)-Bip(OMe)-(CH2)-(APPA) (peptide)
peptide: Ac-H[Aib]QG[aThr][αMePhe(2-F)][aThr]SD[Bip(2'-Et-4'-OMe)][hhPhe]
modifications: also: reduced (CH2) bonds between 9-10 and 10-11
B3: Seq. ID. No. 172: CH3OCO-H-Aib-QGT-(α-Me-2F-Phe)-TSD-(C═S)-Bip(OMe)-(C═S)-(2F-APPA) (peptide)
peptide: Moc-H[Aib]QGT[αMePhe(2-F)]TSD[Bip(2'-Et-4'-OMe)][2F‑APPA]
modifications: also: thioamide bonds between residues 9-10 and 10-11
B4: Seq. ID. No. 192: H-Aib-(CNB)-G-T(allo)-(α-Me-2F-Phe)-T(allo)-SD-Bip(OMe)-(CH2)-(2F-APPA) (peptide)
peptide: H[Aib][CNB]G[aThr][αMePhe(2-F)][aThr]SD[Bip(2'-Et-4'-OMe)][2F‑APPA]
modifications: reading uncertain; also: reduced (CH2) bond between 10 and 11
B5: Seq. ID. No. 208: CH3OCO-H-Aib-(CNB)-GT-(α-Me-2F-Phe)-TSD-Bip(OMe)-(2F-APPA) (peptide)
peptide: Moc-H[Aib][CNB]GT[αMePhe(2-F)]TSD[Bip(2'-Et-4'-OMe)][2F‑APPA]
modifications: reading uncertain
B6: Seq. ID. No. 31: H-Aib-(CNB)-GTFTSD-Bip(OMe)-(ACPP) (peptide)
peptide: H[Aib][CNB]GTFTSD[Bip(2'-Et-4'-OMe)][ACPP]
modifications: reading uncertain
B7: Seq. ID. No. 28: H-(APP)-QGTFTSD-Bip(OMe)-(AMCB) (peptide)
peptide: H[Ac5c]QGTFTSD[Bip(2'-Et-4'-OMe)][AMCB]
B8: Seq. ID. No. 132: H-Aib-(CNB)-G-T(allo)-(α-Me-2F-Phe)-T(allo)-SD-Bip(OMe)-((NMe)(2F-APPA)) (peptide)
peptide: H[Aib][CNB]G[aThr][αMePhe(2-F)][aThr]SD[Bip(2'-Et-4'-OMe)][NMe2F‑APPA]
modifications: reading uncertain
B9: Seq. ID. No. 212: CH3CO-H-Aib-(Hfl)-GT-(α-Me-2F-Phe)-TSD-Bip(OMe)-(2F-APPA) (peptide)
peptide: Ac-H[Aib][Leu(5,5,5,5',5',5'-F6)]GT[αMePhe(2-F)]TSD[Bip(2'-Et-4'-OMe)][2F‑APPA]
B10: Seq. ID. No. 218: H-Aib-(Hfl)-G-T(allo)-(α-Me-2F-Phe)-T(allo)-SD-Bip(OMe)-(C═S)-(2F-APPA) (peptide)
peptide: H[Aib][Leu(5,5,5,5',5',5'-F6)]G[aThr][αMePhe(2-F)][aThr]SD[Bip(2'-Et-4'-OMe)][2F‑APPA]
modifications: also: thioamide (C═S) bond Z10-Z11
B11: Seq. ID. No. 51: HSQGTFTSD-Bip(OMe)-(2,4-diCl-APPA) (peptide)
peptide: HSQGTFTSD[Bip(2'-Et-4'-OMe)][2,4‑diCl‑APPA]
modifications: reading uncertain
B12: Seq. ID. No. 49: HSQGTFTSD-Bip(OMe)-(2F, 4CF3-APPA) (peptide)
peptide: HSQGTFTSD[Bip(2'-Et-4'-OMe)][2F,4CF3‑APPA]
B13: Seq. ID. No. 191: H-Aib-QG-T(allo)-(α-Me-2F-Phe)-T(allo)-SD-Bip(OMe)-(CH2)-(2F-APPA) (peptide)
peptide: H[Aib]QG[aThr][αMePhe(2-F)][aThr]SD[Bip(2'-Et-4'-OMe)][2F‑APPA]
modifications: also: reduced (CH2) bond between 10 and 11
B14: Seq. ID. No. 78: H-Aib-(CNB)-GTFTSD-Bip(OMe)-(2,4-diF-APPA) (peptide)
peptide: H[Aib][CNB]GTFTSD[Bip(2'-Et-4'-OMe)][2,4‑diF‑APPA]
modifications: reading uncertain
B15: Seq. ID. No. 5: HSQGTFTSD-Bip(OMe)-(APPA) (peptide)
peptide: H-HSQGTFTSD[Bip(2'-Et-4'-OMe)][hhPhe]-NH2
B16: Seq. ID. No. 188: CH3OCO-H-Aib-QG-T(allo)-(α-Me-2F-Phe)-T(allo)-SD-Bip(OMe)-(CH2)-(2F-APPA) (peptide)
peptide: Moc-H[Aib]QG[aThr][αMePhe(2-F)][aThr]SD[Bip(2'-Et-4'-OMe)][2F‑APPA]
modifications: also: reduced (CH2) bond between 10 and 11
B17: Seq. ID. No. 142: H-Aib-(CNB)-G-T(allo)-(α-Me-2F-Phe)-T(allo)-SD-((NMe)Bip(OMe))-((NMe)(APPA)) (peptide)
peptide: H[Aib][CNB]G[aThr][αMePhe(2-F)][aThr]SD[NMeBip(OMe)][NMeAPPA]
modifications: reading uncertain
B18: Seq. ID. No. 195: CH3CO-H-Aib-QGT-(α-Me-2F-Phe)-TSD-(CH2)-Bip(OMe)-(CH2)-(2F-APPA) (peptide)
peptide: Ac-H[Aib]QGT[αMePhe(2-F)]TSD[Bip(2'-Et-4'-OMe)][2F‑APPA]
modifications: also: reduced (CH2) bonds between 9-10 and 10-11
B19: Seq. ID. No. 170: CH3OCO-H-Aib-QGT-(α-Me-2F-Phe)-TSD-(C═S)-Bip(OMe)-(C═S)-(APPA) (peptide)
peptide: Moc-H[Aib]QGT[αMePhe(2-F)]TSD[Bip(2'-Et-4'-OMe)][hhPhe]
modifications: also: thioamide bonds between residues 9-10 and 10-11
B20: Seq. ID. No. 177: H-Aib-QG-T(allo)-(α-Me-2F-Phe)-T(allo)-SD-(C═S)-Bip(OMe)-(C═S)-(APPA) (peptide)
peptide: H[Aib]QG[aThr][αMePhe(2-F)][aThr]SD[Bip(2'-Et-4'-OMe)][hhPhe]
modifications: also: thioamide bonds between residues 9-10 and 10-11
B21: Seq. ID. No. 199: CH3CO-H-Aib-QG-T(allo)-(α-Me-2F-Phe)-T(allo)-SD-(CH2)-Bip(OMe)-(CH2)-(2F-APPA) (peptide)
peptide: Ac-H[Aib]QG[aThr][αMePhe(2-F)][aThr]SD[Bip(2'-Et-4'-OMe)][2F‑APPA]
modifications: also: reduced (CH2) bonds between 9-10 and 10-11
B22: Seq. ID. No. 150: CH3OCO-H-Aib-QG-T(allo)-(α-Me-2F-Phe)-T(allo)-S-(NMe)D-((NMe)Bip(OMe))-((NMe)(APPA)) (peptide)
peptide: Moc-H[Aib]QG[aThr][αMePhe(2-F)][aThr]S[NMeD][NMeBip(OMe)][NMeAPPA]
modifications: reading uncertain
B23: Seq. ID. No. 9: H-(α-Me-Pro)-QGTFTSD-Bip(OMe)-(APPA) (peptide)
peptide: H[αMeP]QGTFTSD[Bip(2'-Et-4'-OMe)][hhPhe]
B24: Seq. ID. No. 65: H-Aib-QGTFTSD-Bip(OMe)-(2F,4CF3-APPA) (peptide)
peptide: H[Aib]QGTFTSD[Bip(2'-Et-4'-OMe)][2F,4CF3‑APPA]
B25: Seq. ID. No. 26: H-(APP)-QGTFTSD-Bip(OMe)-(ADMP) (peptide)
peptide: H[Ac5c]QGTFTSD[Bip(2'-Et-4'-OMe)][Nva(5-(3,5-Me2Ph))]

The binders below were run against human glucagon receptor (human, UniProt P47871 26-477) (assay: cell-based or functional assay).

| inhibition of cAMP production, 1 nM | inhibition of cAMP production, 10 nM | inhibition of cAMP production, 100 nM | inhibition of cAMP production, 1 µM | inhibition of cAMP production, 10 µM | Binder |
| --- | --- | --- | --- | --- | --- |
| 3 pmol/ml/µg prt | 1 pmol/ml/µg prt | 0 pmol/ml/µg prt | 0 pmol/ml/µg prt | 0 pmol/ml/µg prt | B1 |
| 14 pmol/ml/µg prt | 11 pmol/ml/µg prt | 7 pmol/ml/µg prt | 3 pmol/ml/µg prt | 0 pmol/ml/µg prt | B2 |
| 4 pmol/ml/µg prt | 2 pmol/ml/µg prt | 0 pmol/ml/µg prt | 0 pmol/ml/µg prt | 0 pmol/ml/µg prt | B3 |
| 4 pmol/ml/µg prt | 2 pmol/ml/µg prt | 0 pmol/ml/µg prt | 0 pmol/ml/µg prt | 0 pmol/ml/µg prt | B4 |
| 5 pmol/ml/µg prt | 3 pmol/ml/µg prt | 1 pmol/ml/µg prt | 0 pmol/ml/µg prt | 0 pmol/ml/µg prt | B5 |
| 6 pmol/ml/µg prt | 5 pmol/ml/µg prt | 2 pmol/ml/µg prt | 0 pmol/ml/µg prt | 0 pmol/ml/µg prt | B6 |
| 14 pmol/ml/µg prt | 11 pmol/ml/µg prt | 7 pmol/ml/µg prt | 3 pmol/ml/µg prt | 0 pmol/ml/µg prt | B7 |
| 15 pmol/ml/µg prt | 12 pmol/ml/µg prt | 8 pmol/ml/µg prt | 4 pmol/ml/µg prt | 2 pmol/ml/µg prt | B8 |
| 10 pmol/ml/µg prt | 8 pmol/ml/µg prt | 6 pmol/ml/µg prt | 4 pmol/ml/µg prt | 1 pmol/ml/µg prt | B9 |
| 9 pmol/ml/µg prt | 6 pmol/ml/µg prt | 5 pmol/ml/µg prt | 3 pmol/ml/µg prt | 0 pmol/ml/µg prt | B10 |
| 5 pmol/ml/µg prt | 3 pmol/ml/µg prt | 0 pmol/ml/µg prt | 0 pmol/ml/µg prt | 0 pmol/ml/µg prt | B11 |
| 10 pmol/ml/µg prt | 8 pmol/ml/µg prt | 6 pmol/ml/µg prt | 2 pmol/ml/µg prt | 0 pmol/ml/µg prt | B12 |
| 4 pmol/ml/µg prt | 2 pmol/ml/µg prt | 2 pmol/ml/µg prt | 0 pmol/ml/µg prt | 0 pmol/ml/µg prt | B13 |
| 22 pmol/ml/µg prt | 21 pmol/ml/µg prt | 20 pmol/ml/µg prt | 18 pmol/ml/µg prt | 18 pmol/ml/µg prt | B14 |
| 6 pmol/ml/µg prt | 5 pmol/ml/µg prt | 3 pmol/ml/µg prt | 0 pmol/ml/µg prt | 0 pmol/ml/µg prt | B15 |
| 5 pmol/ml/µg prt | 3 pmol/ml/µg prt | 1 pmol/ml/µg prt | 0 pmol/ml/µg prt | 0 pmol/ml/µg prt | B16 |
| 10 pmol/ml/µg prt | 8 pmol/ml/µg prt | 6 pmol/ml/µg prt | 2 pmol/ml/µg prt | 0 pmol/ml/µg prt | B17 |
| 15 pmol/ml/µg prt | 12 pmol/ml/µg prt | 8 pmol/ml/µg prt | 4 pmol/ml/µg prt | 2 pmol/ml/µg prt | B18 |
| 6 pmol/ml/µg prt | 5 pmol/ml/µg prt | 2 pmol/ml/µg prt | 0 pmol/ml/µg prt | 0 pmol/ml/µg prt | B19 |
| 0 pmol/ml/µg prt | 0 pmol/ml/µg prt | 0 pmol/ml/µg prt | 0 pmol/ml/µg prt | 0 pmol/ml/µg prt | B20 |
| 4 pmol/ml/µg prt | 3 pmol/ml/µg prt | 0 pmol/ml/µg prt | 0 pmol/ml/µg prt | 0 pmol/ml/µg prt | B21 |
| 10 pmol/ml/µg prt | 8 pmol/ml/µg prt | 6 pmol/ml/µg prt | 4 pmol/ml/µg prt | 1 pmol/ml/µg prt | B22 |
| 5 pmol/ml/µg prt | 3 pmol/ml/µg prt | 0 pmol/ml/µg prt | 0 pmol/ml/µg prt | 0 pmol/ml/µg prt | B23 |
| 10 pmol/ml/µg prt | 8 pmol/ml/µg prt | 6 pmol/ml/µg prt | 4 pmol/ml/µg prt | 1 pmol/ml/µg prt | B24 |
| 15 pmol/ml/µg prt | 12 pmol/ml/µg prt | 8 pmol/ml/µg prt | 4 pmol/ml/µg prt | 2 pmol/ml/µg prt | B25 |
